Measured values from article PMC5013604.

Experiments:
[1] = cycloheximide chase, western blot, MDA-MB-231; conditions: glycan lost; control: wild type
[2] = western blot with GSK3β and β-TrCP overexpression; conditions: glycan lost; control: wild type (co-expressed)
[3] = PD-L1 IP, anti-K48 ubiquitin blot, with MG132; conditions: glycan lost; control: MG132 without tunicamycin

Substance | degradation_or_half_life, half_life [1] | expression_or_secretion [2] | other: ubiquitination [3]
PD-L1 (programmed death ligand-1, B7-H1): 4NQ | decreases | decreases | –
PD-L1 (programmed death ligand-1, B7-H1): N35/3NQ | decreases | – | –
PD-L1 (programmed death ligand-1, B7-H1): N35Q | no change | – | –
PD-L1 (programmed death ligand-1, B7-H1): N192Q | decreases | – | –
PD-L1 (programmed death ligand-1, B7-H1): N200Q | decreases | – | –
PD-L1 (programmed death ligand-1, B7-H1): N219Q | decreases | – | –
PD-L1 (programmed death ligand-1, B7-H1): tunicamycin | – | – | increases
